From paper PMC7838286

Tests used:
[1] = molecular target: Cp150 homodimer (Cp149 variant with a C-terminal cysteine) (Hepatitis B Virus); test: cryo-EM structure; capsids left after treatment of co-assembled capsids with 3 M urea and 100 uM EDTA; C1 symmetry throughout; complete capsid 6.2 Å, holey capsids 10.8 Å and 12.9 Å
[2] = molecular target: Cp150 homodimer (Cp149 variant with a C-terminal cysteine) (Hepatitis B Virus); test: SEC; 2 uM Cp150Bo with 4 uM holey capsid, 300 mM NaCl, 23 °C, 24 h; 2 uM Cp150Bo alone with 300 mM NaCl as control; Superose 6 with absorbance at 280 and 504 nm and fluorescence at 512 nm

Substance | stoichiometry N [1] | Cp150Bo dimers added per holey capsid (dimers per holey capsid) [2]
Cp150 homodimer (Cp149 variant with a C-terminal cysteine) (domain or fragment) | 120 dimers | 
Cp150Bo homodimer (BODIPY-FL-labeled Cp150) (domain or fragment) |  | 16
